Source: patent US20250283871A1, “COMPOSITIONS AND METHODS FOR MODULATING THE INTERACTION BETWEEN SS18-SSX FUSION ONCOPROTEIN AND NUCLEOSOMES” (Dana-Farber Cancer Institute, Inc., priority 2020, published 2025)

Columns and labels:
[1] = molecular target: QCR2_HUMAN Cytochrome b-c1 complex subunit 2, mitochondrial (human) (UniProt P22695); test: anti-SMARCA4 (BRG1) IP, mass spectrometry, Aska-SS cells
[2] = molecular target: TNR6B_HUMAN Trinucleotide repeat-containing gene 6B protein (human) (UniProt Q9UPQ9); test: as above
[3] = molecular target: TRA2B_HUMAN Transformer-2 protein homolog beta (human) (UniProt P62995); test: as above
[4] = molecular target: TSP1_HUMAN Thrombospondin-1 (human) (UniProt P07996); test: as above
[5] = molecular target: UBC_HUMAN Polyubiquitin-C (human) (UniProt P0CG48); test: as above
[6] = molecular target: UBP2L_HUMAN Isoform 5 of Ubiquitin-associated protein 2-like (human) (UniProt Q14157); test: as above
[7] = molecular target: UCRIL HUMAN Putative cytochrome b-c1 complex subunit Rieske-like protein 1 (human) (UniProt P0C7P4); test: as above
[8] = molecular target: URB2_HUMAN Unhealthy ribosome biogenesis protein 2 homolog (human) (UniProt Q14146); test: as above
[9] = molecular target: VIME_HUMAN Vimentin (human) (UniProt P08670); test: as above
[10] = molecular target: XRN2_HUMAN 5'-3' exoribonuclease 2 (human) (UniProt Q9H0D6); test: as above
[11] = molecular target: YLPM1_HUMAN Isoform 4 of YLP motif-containing protein 1 (human) (UniProt P49750); test: as above
[12] = molecular target: ZC11A_HUMAN Zinc finger CCCH domain-containing protein 11A (human) (UniProt O75152); test: as above
[13] = molecular target: ZN326_HUMAN DBIRD complex subunit ZNF326 (human) (UniProt Q5BKZ1); test: as above
[14] = molecular target: UBP2L_HUMAN Isoform 5 of Ubiquitin-associated protein 2-like (human) (UniProt Q14157); test: anti-SMARCA4 (BRG1) IP, mass spectrometry, human fibroblasts
[15] = molecular target: URB2_HUMAN Unhealthy ribosome biogenesis protein 2 homolog (human) (UniProt Q14146); test: as above
[16] = molecular target: XRN2_HUMAN 5'-3' exoribonuclease 2 (human) (UniProt Q9H0D6); test: as above
[17] = molecular target: YLPM1_HUMAN Isoform 4 of YLP motif-containing protein 1 (human) (UniProt P49750); test: as above
[18] = molecular target: ACL6A_HUMAN Actin-like protein 6A (human) (UniProt O96019); test: MS of BAF complexes from Aska-SS cells, shControl against shSS18-SSX, Rep 1
[19] = molecular target: ARI1B_HUMAN Isoform 3 of AT-rich interactive domain-containing protein 1B (human) (UniProt Q8NFD5); test: as above
[20] = molecular target: BCL7B (human) (UniProt Q9BQE9); test: as above
[21] = molecular target: BCL7C_HUMAN Isoform 2 of B-cell CLL/lymphoma 7 protein family member C (human) (UniProt Q8WUZ0); test: as above
[22] = molecular target: SMCE1_HUMAN SWI/SNF-related matrix-associated actin-dependent regulator of chromatin subfamily E member 1 (human) (UniProt Q969G3); test: as above
[23] = molecular target: SMRC1_HUMAN SWI/SNF complex subunit SMARCC1 (human) (UniProt Q92922); test: as above
[24] = molecular target: SMRD1_HUMAN SWI/SNF-related matrix-associated actin-dependent regulator of chromatin subfamily D member 1 (human) (UniProt Q96GM5); test: as above
[25] = molecular target: SNF5_HUMAN Isoform B of SWI/SNF-related matrix-associated actin-dependent regulator of chromatin subfamily B member 1 (human) (UniProt Q12824); test: as above
[26] = molecular target: SSX1; SSX8 (human) (UniProt Q16384); test: as above
[27] = molecular target: SSXT_HUMAN Protein SSXT (human) (UniProt Q15532); test: as above

NSAF [1]: 0
NSAF [2]: 0
NSAF [3]: 0
NSAF [4]: 0
NSAF [5]: 0
NSAF [6]: 0
NSAF [7]: 0
NSAF [8]: 0
NSAF [9]: 0
NSAF [10]: 0
NSAF [11]: 0
NSAF [12]: 0
NSAF [13]: 0
NSAF [14]: 5.74e-05
NSAF [15]: 0
NSAF [16]: 0
NSAF [17]: 0.000266
LFQ intensity ratio Aska (shControl)/Aska (shSS18-SSX), norm to SMARCA4 [18]: 0.784
LFQ intensity ratio Aska (shControl)/Aska (shSS18-SSX), norm to SMARCA4 [19]: 0.721
LFQ intensity ratio Aska (shControl)/Aska (shSS18-SSX), norm to SMARCA4 [20]: 1.34
LFQ intensity ratio Aska (shControl)/Aska (shSS18-SSX), norm to SMARCA4 [21]: 1.74
LFQ intensity ratio Aska (shControl)/Aska (shSS18-SSX), norm to SMARCA4 [22]: 0.894
LFQ intensity ratio Aska (shControl)/Aska (shSS18-SSX), norm to SMARCA4 [23]: 0.506
LFQ intensity ratio Aska (shControl)/Aska (shSS18-SSX), norm to SMARCA4 [24]: 0.771
LFQ intensity ratio Aska (shControl)/Aska (shSS18-SSX), norm to SMARCA4 [25]: 0.0221
LFQ intensity ratio Aska (shControl)/Aska (shSS18-SSX), norm to SMARCA4 [26]: 8.69
LFQ intensity ratio Aska (shControl)/Aska (shSS18-SSX), norm to SMARCA4 [27]: 0.959
Substance: SMCA4_HUMAN Transcription activator BRG1 (from UniProt P51532 1-1647) (enzyme)
